Data reported in publication PMC2229597.
Like-named read-outs stand apart in the source and are kept apart here.

Columns and labels:
[1] = target: CNGA2 mutant channel 2-D316C (UniProt Q00195)
[2] = target: CNGA2 mutant channel 2-Y321C modified with MTSES (UniProt Q00195)
[3] = target: CNGA2 mutant channel 2-Y321C modified with MTSET (UniProt Q00195)
[4] = target: CNGA2 mutant channel 2-D316N (UniProt Q00195)
[5] = target: CNGA2 mutant channel 2-Y321R (UniProt Q00195)
[6] = target: CNGA3 double mutant channel 3-N361D/R366Y (UniProt Q29441)
[7] = target: CNGA3 mutant channel 3-N361D (UniProt Q29441)
[8] = target: CNGA3 mutant channel 3-R366Y (UniProt Q29441)
[9] = target: CNGA2 mutant channel 2-E325K (UniProt Q00195); assay: patch-clamp electrophysiology
[10] = target: CNGA2 mutant channel 2-S301F (UniProt Q00195); assay: patch-clamp electrophysiology
[11] = target: CNGA2 mutant channel 2-T308S (UniProt Q00195); assay: patch-clamp electrophysiology
[12] = target: heteromeric CNG channel containing CNGA2 and CNGA4 (UniProt Q00195); assay: patch-clamp electrophysiology
[13] = target: homomeric CNG channel composed of olfactory CNGA2 (UniProt Q00195); assay: patch-clamp electrophysiology
[14] = target: homomeric CNG channel composed of olfactory CNGA2 (UniProt Q00195); assay: patch-clamp electrophysiology; remark: listed apart in the source
[15] = target: homomeric CNG channel composed of olfactory CNGA2 (UniProt Q00195); assay: patch-clamp electrophysiology; remark: listed apart in the source

Substance: Pseudechetoxin (natural protein)
- block of current by 500 nM PsTx, outside-out patches from oocytes [1]: 33%
- block of current by 500 nM PsTx after modification of the patch with MTSES [2]: 93%
- block of current by 500 nM PsTx after modification of the patch with MTSET [3]: 81%
- inhibition of current by 500 nM PsTx at −60 mV, outside-out patches from oocytes [4]: < 5%
- inhibition of current by 500 nM PsTx at −60 mV, outside-out patches from oocytes [5]: < 5%
- inhibition of current by 500 nM PsTx, outside-out patches from oocytes (n = 4) [6]: 84%
- inhibition of current by 500 nM PsTx, outside-out patches from oocytes (n = 9) [7]: 15%
- inhibition of current by 500 nM PsTx, outside-out patches from oocytes [8]: 2%
- Ki [9]: 123 nM
- Ki [10]: 16 nM
- Ki [11]: 16 nM
- Kd [12]: 100 nM
- Ki [13]: 32 nM
- time constant of wash-off (dissociation) [13]: 67 s
- Ki [14]: 24 nM
- Ki [15]: 180 nM
